The chains are these.
B1: NMT18 (antibody, V domains shown)
VH: EVQLVQSGAEVKKPGASVKVSCKASGYIFTNYPIHWVRQAPGQGLEWMGFIDPGGGYDEPDERFRDRVTMTADTSTSTAYMELSSLRSEDTAVYYCARRGGGYYLDYWGQGTTVTVSS
VL: DIQMTQSPSSLSASVGDRVTITCRASQDISFFLNWYQQKPGKAPKLLIYYTSRYHSGVPSRFSGSGSGTDFTLTISSLQPEDFATYYCQHGQTLPWTFGQGTKLEIK
B2: NMT20 (antibody, V domains shown)
VH: B1 VH
VL: B1 VL with Q92S, W96Y
B3: NMT21 (antibody, V domains shown)
VH: B1 VH with P60Y, D61A, E62Q, R63K, R65Q, D66G, M70L, V114L
VL: B1 VL
B4: NMT17 (antibody, V domains shown)
VH: B1 VH
VL: B1 VL with Q92S
B5: NMT18-101 (antibody, V domains shown)
VH: B1 VH
VL: B1 VL
B6: NMT18-100 (antibody, V domains shown)
VH: B1 VH
VL: B1 VL
B7: NMT17-100 (antibody, V domains shown)
VH: B1 VH
VL: B1 VL with Q92S
B8: NMT28-101 (antibody, V domains shown)
VH: B1 VH with T113L
VL: B1 VL with L104V
B9: NMT28-100 (antibody, V domains shown)
VH: B1 VH with T113L
VL: B1 VL with L104V
B10: NMT17-101 (antibody, V domains shown)
VH: B1 VH
VL: B1 VL with Q92S
B11: NMT19 (antibody, V domains shown)
VH: B1 VH with Y27H, Y57H
VL: B1 VL
B12: NMT22 (antibody, V domains shown)
VH: B1 VH with P60S, D61A, E62Q, R63K, D66G, M70L, A79V, V114L
VL: B1 VL with Q92S, W96Y
B13: NMT16 (antibody, V domains shown)
VH: B1 VH
VL: B1 VL with Q92N
B14: NMT24 (antibody, V domains shown)
VH: EVQLVQSGAEVKKPGASVKVSCKASGYIFTNYPIHWVRQAPGKGLEWMGFIDPGGGHDEYADSVKGRVTMTRDTSTSTVYMELSSLRSEDTAVYYCARRGGGYYLDYWGQGTLVTVSS
VL: B1 VL with Y50G, T51A, R53S, W96R, L104V
B15: NMT26 (antibody, V domains shown)
VH: EVQLVESGGGLVQPGRSLRLSCAASGYIFTNYPIHWVRQAPGKGLEWVSFIDPGGGHIDYADSVEGRFTISRDNAKNSLYLQMNSLRAEDTAVYYCAKRGGGYYLDYWGQGTLVTVSS
VL: B1 VL with F83V, Q92S, W96Y, L104V
B16: NMT23 (antibody, V domains shown)
VH: B14 VH
VL: B1 VL with Q92S, L104V
B17: NMT27 (antibody, V domains shown)
VH: B1 VH with Q43K, A72R, A79V, T113L
VL: B1 VL with Q92S, W96R, L104V
B18: NMT30-100 (antibody, V domains shown)
VH: EVTLKESGPTLVKPTQTLTLTCTFSGFSLSTSGMGVGWIRQPPGKALEWLAHIWWDDVKSYNPALKSRLTITKDTSKNQVVLTITNVDPVDTATYYCARIGDGYYSFDYWGQGTTLTVSS
VL: DIQMTQSPSSLSASVGDRVTITCRASQDVSDAVAWFQQKPGKAPKLLIYSPSYRYTGVPSRFSGSGSGTDFTFTISSLQPEDFATYYCQQHYSTPWTFGQGTKLEIK
B19: NMT31-100 (antibody, V domains shown)
VH: B18 VH with I84M, V87M, L116V
VL: B18 VL with F83L
B20: NMT31-101 (antibody, V domains shown)
VH: B18 VH with I84M, V87M, L116V
VL: B18 VL with F83L
B21: NMT30-101 (antibody, V domains shown)
VH: B18 VH
VL: B18 VL

Positions count from the first letter of the chain named.

T1 sequence (P27918 28-469 limits assumed): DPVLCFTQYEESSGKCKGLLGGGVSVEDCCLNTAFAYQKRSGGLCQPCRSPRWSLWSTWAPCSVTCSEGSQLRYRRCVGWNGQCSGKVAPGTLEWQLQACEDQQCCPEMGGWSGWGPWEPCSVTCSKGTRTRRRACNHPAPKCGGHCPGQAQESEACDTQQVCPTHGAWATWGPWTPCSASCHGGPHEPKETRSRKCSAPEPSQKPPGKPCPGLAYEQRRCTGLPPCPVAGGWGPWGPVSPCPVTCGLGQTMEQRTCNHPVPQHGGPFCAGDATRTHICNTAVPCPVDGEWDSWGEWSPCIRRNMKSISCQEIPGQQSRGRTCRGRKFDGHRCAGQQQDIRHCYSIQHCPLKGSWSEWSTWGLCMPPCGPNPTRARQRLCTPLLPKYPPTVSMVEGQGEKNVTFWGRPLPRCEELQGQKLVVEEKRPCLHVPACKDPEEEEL

The first assay addresses T1, human properdin (human, UniProt P27918 28-469). Nature of the assay: cell-based or functional assay.
For B1, the “IC50 (read off the curve): C3b deposition (AP activation on LPS, normal human serum)” value is roughly 0.5 mg/L.
Still for that read-out and setting: for B2 the value was roughly 0.8 mg/L; for B3, roughly 0.5 mg/L.
With B4, the “IC50 (read off the curve): C3b deposition (AP activation on LPS, normal human serum)” value is roughly 0.7 mg/L.

The next assay has as its target T1, human properdin. As to the kind of experiment: ELISA, properdin coated on the plate, OD 450 nm.
B5: the “EC50 (read off the curve)” value was roughly 0.6 nM.
As for B6, the “EC50 (read off the curve)” value was in the range of 0.3 to 0.4 nM.
Still for that read-out and setting: for B7 the value was roughly 0.3 nM; for B8, roughly 0.4 nM; for B9, 0.3 to 0.4 nM.
On the same count and under the same terms, for B10 the value was roughly 0.5 nM.

Another assay has as its target T1, human properdin. Nature of the assay: cell-based or functional assay. This is another data set of the same source.
As to B5, the “IC50 (read off the curve): C3b deposition (sheet title: LPS C3b 10% NHS)” value (from here on “IC50 … (sheet title: LPS C3b 10% NHS)”) is roughly 0.5 mg/L.
As to B6, the “IC50 … (sheet title: LPS C3b 10% NHS)” value is roughly 0.5 mg/L.
Same read-out and setting: for B7 the value was roughly 0.4 mg/L.
On the same count and under the same terms, for B8 the value was roughly 0.5 mg/L; for B9, roughly 0.5 mg/L; for B10, roughly 0.5 mg/L.

In a further assay the target is T1, human properdin. Nature of the assay: cell-based or functional assay. The source holds these as a separate data set.
Regarding B2, the “IC50 (read off the curve): properdin deposition (AP activation on LPS, 10% normal human serum)” value is roughly 1 mg/L.
Still for that read-out and setting: for B11 the value was roughly 10 mg/L; for B12, roughly 9 mg/L; for B3, roughly 1 mg/L.

The target in the next assay is T1, human properdin. As to the kind of experiment: ELISA, human properdin coated on the plate, OD 450 nm. As to the method:
(§1) Polystyrene microtiter plates were coated with human (2.0 μg/50 μl per well) properdin in phosphate buffered saline (PBS) overnight at 4° C. After aspirating the properdin solution, the wells were blocked with PBS containing 1% bovine serum albumin (BSA) (Sigma-Aldrich, St. Louis, Mo.) for 2 hours at room temperature. Wells without peptide or properdin coating served as background controls. Aliquots of the test antibody in blocking solution were added to the properdin coated wells and allowed to incubate for 1 hour to allow binding to occur. Following a 1 hour incubation at room temperature, the plate was rinsed with PBS five times and incubated with 1:2000 diluted anti-properdin polyclonal antibody.
For orientation: ELISA stands for enzyme-linked immunosorbent assay.
For the molecule B1, the “EC50 (read off the curve)” value is roughly 0.3 nM.
As for B2, the “EC50 (read off the curve)” value was roughly 0.3 nM.
The same measure, in the same setting: for B11 the value was roughly 0.5 nM; for B12, 0.3 to 0.4 nM.
With B3, the half-maximal effective concentration (EC50 (read off the curve)) lay in the range of 0.3 to 0.4 nM.
Same read-out and setting: the value for B13 was 0.3 to 0.4 nM; that for B4 was roughly 0.3 nM.

The target of the next assay is T1, human properdin. As to the kind of experiment: properdin binding assay (method of Example 8, not restated).
With B5, the Affinity worked out at 590 pM.
Still for that read-out and setting: for B6 the value was 322 pM.
The molecule B7 had an Affinity of 263 pM.
The same measure, in the same setting: the value for B8 was 425 pM; that for B9 was 318 pM.
The same measure, in the same setting: for B10 the value was 499 pM.

In the next assay the target is T1, human properdin. Nature of the assay: ELISA, properdin coated on the plate, OD 450 nm. The source holds these as a separate data set.
B14: the binding result was “no binding (tested: about 13 nM)”.
Same read-out and setting: for B15 the value was “no binding (tested: about 13 nM)”.
Turning to B16, the “EC50 (read off the curve)” value was roughly 0.2 nM.
In the case of B17, the binding result is reported as “binds”.

The target of a further assay is T1, human properdin. Nature of the assay: cell-based or functional assay. This is another data set of the same source.
Regarding B1, the “IC50 (read off the curve): properdin deposition (AP activation on LPS, 10% normal human serum)” value is roughly 0.9 mg/L.
The same measure, in the same setting: the value for B13 was roughly 1 mg/L.
Still for that read-out and setting: for B4 the value was roughly 0.9 mg/L.

For a further assay, the target named is T1, human properdin. Nature of the assay: ELISA, human properdin coated on plate. As to the method:
as §1
As to B1, the “Binding Affinity” value came to 289 pM.
Still for that read-out and setting: the value for B2 was 297 pM; that for B11 was 486 pM; that for B12 was 335 pM.
Still for that read-out and setting: for B3 the value was 353 pM.
In the case of B13, the “Binding Affinity” value was found to be 315 pM.
Still for that read-out and setting: the value for B4 was 283 pM.

In a further assay the target is T1, human properdin. As to the kind of experiment: cell-based or functional assay. The source holds these as a separate data set.
Take B1: the “MAC (µg/Ml); inhibition of MAC formation” value turned out to be 9 µg/mL and the “Properdin (µg/mL); inhibition of properdin deposition” value (“Properdin (µg/mL); inhibition” below) came out at 3 µg/mL.
Consider B2, for which the “MAC (µg/Ml); inhibition of MAC formation” value came to 25 µg/mL and the “Properdin (µg/mL); inhibition” value came out at 30 µg/mL.
B3: the “MAC (µg/Ml); inhibition of MAC formation” value stood at 8 µg/mL and the “Properdin (µg/mL); inhibition” value came to 8 µg/mL.
In the case of B13, the “MAC (µg/Ml); inhibition of MAC formation” value is 3 µg/mL and the “Properdin (µg/mL); inhibition” value is 4 µg/mL.
On the same counts, the results for B4 are 5 µg/mL and 4 µg/mL.

A further assay has as its target T1, human properdin. Nature of the assay: cell-based or functional assay. The source holds these as a separate data set.
Turning to B5, the “C3b (µg/mL); inhibition of AP mediated C3b formation and deposition” value (“C3b (µg/mL); inhibition” below) turned out to be 1 µg/mL; the “MAC (µg/mL); inhibition of MAC formation” value stood at 3 µg/mL.
Turning to B6, the “C3b (µg/mL); inhibition” value turned out to be 1 µg/mL; the “MAC (µg/mL); inhibition of MAC formation” value amounted to 1 µg/mL.
Take B7: the “C3b (µg/mL); inhibition” value amounted to 1 µg/mL; the “MAC (µg/mL); inhibition of MAC formation” value stood at 1 µg/mL.
With B8, the “C3b (µg/mL); inhibition” value worked out at 1 µg/mL; the “MAC (µg/mL); inhibition of MAC formation” value came out at 3 µg/mL.
The matching figures for B9: 1 µg/mL and 3 µg/mL.
On the same counts, the results for B10 are 1 µg/mL and 1 µg/mL.

The target of a further assay is T1, human properdin. As to the kind of experiment: cell-based or functional assay. This is another data set of the same source.
For B18, the “IC50 … (sheet title: LPS C3b 10% NHS)” value was roughly 0.6 mg/L.
Same read-out and setting: for B19 the value was roughly 0.5 mg/L.
Consider B20, for which the “IC50 … (sheet title: LPS C3b 10% NHS)” value was roughly 0.5 mg/L.
The same measure, in the same setting: the value for B21 was roughly 0.6 mg/L.

A word on the EC50 (read off the curve): it is the midpoint of the concentration-response curve.

(Values after patent US20230073274A1 (NOVELMED THERAPEUTICS, published 2023).)
